# Test results reported in patent US20250099635A1 (Janssen / Centocor, published 2025).
# B1: KL2B30 (Fab) (Fab, V domains shown)
# VH: QVQLQESGPGLVKPSETLSLTCTVSGGSISSYYWSWIRQPPGKGLEWIGYIYYSGSTNYNPSLKSRVTISVDTSKNQFSLKLSSVTAADTAVYYCAGTTIFGVVTPNFYYGMDVWGQGTTVTVSS
# VL: DIQMTQSPSFLSASVGDRVTITCRASQGISSYLAWYQQKPGKAPKFLIYAASTLQSGVPSRFSGSGSGTEFTLTISSLQPEDFATYYCQQLNSYPLTFGGGTKVEIK
# B2: KL2B242 (Fab) (Fab, V domains shown)
# VH: QVQLQESGPGLVKPSETLSLTCTVSGGSISSYYWSWLRQPAGSGLEWIGRLYVSGFTNYNPSLKSRVTLSLDPSRNQLSLKLSSVTAADTAVYYCAGDSGNYWGWFDPWGQGTLVTVSS
# VL: SYELTQPPSVSVSPGETASITCSGDQLGENYACWYQQKPGQSPVLVIYQDSKRPSGIPERFSGSNSGNTATLTISGTQALDEADYYCQAWDNSIVVFGGGTKLTVL
# B3: KL2B53 (Fab) (Fab, V domains shown)
# VH: EVQLVESGGGVVQPGRSLRLSCVASGFTFSSYDIHWVRQAPGKGLEWVAIISYDGSKKDYTDSVKGRFTISRDNSKNTLYLQMDSLRVEDSAVYSCARESGWSHYYYYGMDVWGQGTMVTVSS
# VL: DIVMTQSPSSLSASVGDRVTITCRASQDISNYLAWYQQKPGKVPKFLIYAASTLHSGVPSRFSGSGSGTDFTLTISSLQPEDVATYYCQKYNSAPYTFGQGTRLEIK
# B4: KL2B467 (Fab) (Fab, V domains shown)
# VH: QVQLVESGGGVVQPGRSLRLSCAASGFTFSYYGMHWVRQAPGKGLEWVAFISYDGSNKYYADSVKGRFTISRDNSKNTLYLQMNSLRAEDTAVYYCAHLPYSGSYWAFDYWGQGTQVTVSS
# VL: QSVLTQPPSVSVAPGQTASITCGGDNIGSKSVHWYQQKPGQAPVLVVYDNSDRPSGIPERFSGSNSGTTATLTISRVEAGDEADYYCQVWDSSSDHPVVFGGGTKVTV
# B5: KL2B494 (Fab) (Fab, V domains shown)
# VH: QVQLVESGGGLVQPGGSLRLSCAASGFTFSHYAMSWVRQAPGKGLEWVSTIGGSGGSTYYADSVKGRFTISRDNSKNTLYLQMNSLRAEDTAVYYCAKPHIVMVTALLYDGMDVWGQGTMVTVSS
# VL: SSELTQPPSVSVAPGQTARITCGGNNIGSKSVHWYQQKPGQAPVLVVYDDSDRPSGIPERFSGSNSGNTATLTISRVEAGDEADYYCQVWDSSSDHVVFGGGTKLTVL
# Target: T1, soluble human kallikrein related peptidase 2 (hK2) protein (human, UniProt P20151 19-261)
# T1 construct: The stated signal peptide is left out here; also called soluble hK2; KLK2
# Assay: SPR; antibody captured by anti-Fc antibody, soluble hK2 injected; 1:1 Langmuir fit
# Protocol: Affinity of selected hK2 antibodies for soluble hK2 was measured by surface plasmon resonance (SPR). […] Antibodies were captured on a sensor chip coated with an anti-Fc antibody followed by injection of soluble hK2 at various concentrations and specified association and dissociation times. Post dissociation, the surface was regenerated with an appropriate solution to prepare for the next interaction. Kinetic information (on-rate and off-rate constants) were extracted by fitting sensorgrams to the 1:1 Langmuir model. Binding affinity (KD) are reported as the ratio of rate constants (koff/kₒₙ).
# T1 sequence (P20151 19-261): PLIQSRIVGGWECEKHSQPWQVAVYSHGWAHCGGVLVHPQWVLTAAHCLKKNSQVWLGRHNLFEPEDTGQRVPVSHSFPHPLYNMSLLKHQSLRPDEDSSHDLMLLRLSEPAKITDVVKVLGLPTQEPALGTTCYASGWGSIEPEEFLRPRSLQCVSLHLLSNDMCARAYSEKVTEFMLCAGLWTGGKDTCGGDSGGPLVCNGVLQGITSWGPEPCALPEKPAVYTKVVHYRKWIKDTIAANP
row,Binder,Kd [nM]
1,B1,0.46
2,B2,0.04
3,B3,0.08
4,B4,0.078
5,B5,0.053
